In patent US20250115669A1, “FGFR1/KLB Targeting Agonistic Antigen-Binding Proteins and Conjugates Thereof with GLP-1R Agonistic Peptides” (SANOFI, priority 2020, published 2025):

Biological target: T1, human beta-Klotho (Homo sapiens, UniProt Q86Z14)
T1 sequence (Q86Z14 1-1044): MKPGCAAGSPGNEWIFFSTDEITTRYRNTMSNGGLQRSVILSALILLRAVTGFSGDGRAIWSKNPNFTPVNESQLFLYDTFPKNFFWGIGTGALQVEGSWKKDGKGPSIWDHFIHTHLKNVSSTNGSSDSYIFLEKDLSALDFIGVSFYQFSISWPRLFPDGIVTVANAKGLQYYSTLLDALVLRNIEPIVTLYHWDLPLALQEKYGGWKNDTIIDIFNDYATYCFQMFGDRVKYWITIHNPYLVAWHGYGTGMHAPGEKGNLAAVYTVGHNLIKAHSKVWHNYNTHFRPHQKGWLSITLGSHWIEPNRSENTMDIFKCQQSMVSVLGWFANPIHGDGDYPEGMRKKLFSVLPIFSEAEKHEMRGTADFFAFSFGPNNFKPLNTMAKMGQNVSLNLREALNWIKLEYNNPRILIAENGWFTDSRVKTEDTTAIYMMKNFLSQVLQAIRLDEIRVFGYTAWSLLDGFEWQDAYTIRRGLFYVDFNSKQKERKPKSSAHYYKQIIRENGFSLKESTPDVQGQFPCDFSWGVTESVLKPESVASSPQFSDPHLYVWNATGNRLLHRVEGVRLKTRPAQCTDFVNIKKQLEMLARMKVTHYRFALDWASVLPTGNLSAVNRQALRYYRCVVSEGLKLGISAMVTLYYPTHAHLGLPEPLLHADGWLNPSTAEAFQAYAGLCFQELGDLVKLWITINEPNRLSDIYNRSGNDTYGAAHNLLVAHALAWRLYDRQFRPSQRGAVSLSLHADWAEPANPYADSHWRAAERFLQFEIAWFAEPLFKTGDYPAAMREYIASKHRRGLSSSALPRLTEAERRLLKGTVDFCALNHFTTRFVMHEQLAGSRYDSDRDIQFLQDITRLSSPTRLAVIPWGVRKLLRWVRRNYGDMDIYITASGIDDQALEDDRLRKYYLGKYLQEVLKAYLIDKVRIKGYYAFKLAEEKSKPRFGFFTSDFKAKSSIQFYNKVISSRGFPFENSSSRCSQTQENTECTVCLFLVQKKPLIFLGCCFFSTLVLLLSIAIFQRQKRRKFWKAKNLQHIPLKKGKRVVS
Assay: SPR off-rate screening of antibody mutants (human beta-Klotho captured by anti-His antibody)
Assay type: binding
Settings: mean, n=3
Description: Screening of antibody mutants for binding to human beta-Klotho was determined in a different SPR assay set up. Human beta-Klotho was affinity captured by an anti-His antibody (from His capture kit, GE Healthcare) that was immobilized to a series S CM5 chip (GE Healthcare) by amine reactive coupling as described above. The antibody samples were used as analytes at 50 nmol/L concentration. Association time was 240 sec and dissociation time was 300 sec. Chip surfaces were regenerated using the regeneration solution supplied with the His capture kit. The off-rates (kd) were determined using single exponential fitting in the Biacore 8K Evaluation Software version 1.1.1.7442 (GE Healthcare).

koff human KLB | Substance
0.000387 s⁻¹ | Ab0189: IgG4 PE; 16H7 VL (D50E); 16H7 VH (M34V, I83T)
0.002 s⁻¹ | Ab0217: IgG4 PE; 16H7 VL (D50E); 16H7 VH (I83T, D109S)
0.00125 s⁻¹ | Ab0215: IgG4 PE; 16H7 VL (N25S); 16H7 VH (I83T, D109S)
0.00185 s⁻¹ | Ab0212: IgG4 PE; 16H7 VL (N93E); 16H7 VH (I83T, D109Y)
invalid fit | Ab0213: IgG4 PE; 16H7 VL (D95E); 16H7 VH (I83T, D109Y)
0.000334 s⁻¹ | Ab0205: IgG4 PE; 16H7 VL (N93E); 16H7 VH (M34V, I83T, D109E)
0.000337 s⁻¹ | Ab0193: IgG4 PE; 16H7 VL; 16H7 VH (I83T, D109E)
invalid fit | Ab0209: IgG4 PE; 16H7 VL (D49Y); 16H7 VH (I83T, D109Y)
0.000288 s⁻¹ | Ab0306: IgG4 PE; 16H7 VL (N25S, N93E); 16H7 VH (M34V, I83T, D109E)
0.00188 s⁻¹ | Ab0207: IgG4 PE; 16H7 VL; 16H7 VH (I83T, D109Y)
0.00151 s⁻¹ | Ab0203: IgG4 PE; 16H7 VL (D50E); 16H7 VH (M34V, I83T, D109E)
0.00103 s⁻¹ | Ab0309: IgG4 PE; 16H7 VL (D50E, N93E); 16H7 VH (M34V, I83T, D109E)
0.000336 s⁻¹ | Ab0201: IgG4 PE; 16H7 VL (N25S); 16H7 VH (M34V, I83T, D109E)
0.00267 s⁻¹ | Ab0195: IgG4 PE; 16H7 VL (D49Y); 16H7 VH (I83T, D109E)

The next lines start with the substance.

Substance | koff human KLB
Ab0300: IgG4 PE; 16H7 VL (D49Y, D91T); 16H7 VH (M34V, I83T, D109E) | invalid fit
Ab0190: IgG4 PE; 16H7 VL (D91T); 16H7 VH (M34V, I83T) | 0.000195 s⁻¹
Ab0234: IgG4 PE; 16H7 VL (N93S); 16H7 VH | 0.00011 s⁻¹
Ab0204: IgG4 PE; 16H7 VL (D91T); 16H7 VH (M34V, I83T, D109E) | 0.00133 s⁻¹
Ab0199: IgG4 PE; 16H7 VL (D95E); 16H7 VH (I83T, D109E) | invalid fit
Ab0188: IgG4 PE; 16H7 VL (D49Y); 16H7 VH (M34V, I83T) | 0.00084 s⁻¹
Ab0297: IgG4 PE; 16H7 VL (D49Y, D50E); 16H7 VH (M34V, I83T, D109E) | 0.00156 s⁻¹
Ab0191: IgG4 PE; 16H7 VL (N93E); 16H7 VH (M34V, I83T) | 0.000144 s⁻¹
Ab0295: IgG4 PE; 16H7 VL (N25S, D49Y); 16H7 VH (M34V, I83T, D109E) | 0.00157 s⁻¹
Ab0296: IgG4 PE; 16H7 VL (N25S, D50E); 16H7 VH (M34V, I83T, D109E) | 0.00137 s⁻¹
Ab0302: IgG4 PE; 16H7 VL (D50E, D91T); 16H7 VH (M34V, I83T, D109E) | invalid fit
Ab0197: IgG4 PE; 16H7 VL (D91T); 16H7 VH (I83T, D109E) | 0.00167 s⁻¹
Ab0211: IgG4 PE; 16H7 VL (D91T); 16H7 VH (I83T, D109Y) | invalid fit
Ab0307: IgG4 PE; 16H7 VL (D49Y, N93E); 16H7 VH (M34V, I83T, D109E) | 0.00118 s⁻¹
Ab0210: IgG4 PE; 16H7 VL (D50E); 16H7 VH (I83T, D109Y) | invalid fit
Ab0196: IgG4 PE; 16H7 VL (D50E); 16H7 VH (I83T, D109E) | 0.00194 s⁻¹
Ab0218: IgG4 PE; 16H7 VL (D91T); 16H7 VH (I83T, D109S) | 0.00668 s⁻¹
Ab0214: IgG4 PE; 16H7 VL; 16H7 VH (I83T, D109S) | 0.00121 s⁻¹
Ab0194: IgG4 PE; 16H7 VL (N25S); 16H7 VH (I83T, D109E) | 0.000402 s⁻¹
Ab0200: IgG4 PE; 16H7 VL; 16H7 VH (M34V, I83T, D109E) | 0.000369 s⁻¹
Ab0208: IgG4 PE; 16H7 VL (N25S); 16H7 VH (I83T, D109Y) | 0.0021 s⁻¹
Ab0192: IgG4 PE; 16H7 VL (D95E); 16H7 VH (M34V, I83T) | invalid fit
Ab0186: IgG4 PE; 16H7 VL; 16H7 VH (M34V, I83T) | 0.000104 s⁻¹
Ab0187: IgG4 PE; 16H7 VL (N25S); 16H7 VH (M34V, I83T) | 0.000156 s⁻¹
Ab0216: IgG4 PE; 16H7 VL (D49Y); 16H7 VH (I83T, D109S) | 0.00984 s⁻¹
Ab0198: IgG4 PE; 16H7 VL (N93E); 16H7 VH (I83T, D109E) | 0.000346 s⁻¹
Ab0220: IgG4 PE; 16H7 VL (D95E); 16H7 VH (I83T, D109S) | invalid fit
Ab0386: IgG4 PE; 16H7 VL (D95S, W90F); 16H7 VH (M34V, F54W, I83T, D109E) | no binding
Ab0202: IgG4 PE; 16H7 VL (D49Y); 16H7 VH (M34V, I83T, D109E) | 0.00161 s⁻¹
Ab0219: IgG4 PE; 16H7 VL (N93E); 16H7 VH (I83T, D109S) | 0.000915 s⁻¹

System: not listed separately
Assay: SAR16 (16H7) standalone and in combination with dulaglutide in DIO NASH cynomolgus monkeys
Assay type: in vivo, Cynomolgus monkey (Macaca fascicularis)
Settings: DIO NASH cynomolgus monkeys
Description: Both were tested as single administration and in combination of both in the most relevant animal model that reflects the intended human population. Thus, the pharmacokinetic and pharmacodynamics of varying doses of the compounds were explored in the high-fat diet-induced obese and insulin resistance cynomolgus monkey model with diagnosed non-alcoholic steatohepatitis (NASH), mimicking the adult human NASH insulin resistance phenotype.
Cynomolgus monkey (Macaca fascicularis) was selected as the test species of choice for more meaningful results that were translatable to humans. More than 50 male monkeys were trained to identify 40 HFD induced obese NASH monkeys for the study.
There was a run-in period during which monkeys were injected subcutaneously with vehicle every third day. Food intake (calculated as TEI) and water intake were measured daily along with twice-weekly body weight evaluation and baseline value determination for metabolic biomarkers, safety biomarkers, IV glucose tolerance test (IVGTT), liver biopsy for gene expression analysis, and profile for glucose, insulin, and plasma lipids.
For the dosing period 40 trained monkeys (n=10 per group) were selected and stratified for body weight, fasting plasma glucose (FPG), and fasting plasma insulin (FPI) and insulin response from baseline during the IVGTT. All treatments were administered subcutaneously for […]. The dosing period was designed as a four-arm, dose-ramping study, and monkeys were treated with either vehicle, SAR10, SAR16, or a combination of both SAR10 and SAR16.
(§1) The SAR10-treated monkeys were dosed every 3rd day at 60 μg/kg initiated by dose ramping (3 dose steps, week 1: 20 μg/kg, week 2: 40 μg/kg, week 3 to runout: 60 μg/kg). The SAR16-treated monkeys were dosed at 1 mg/kg on day +1, 3 mg/kg on day +16, and then repeat maintenance dose of 3 mg/kg on day +46. The Combo-treated monkey were dosed with both SAR10 and SAR16 as the same pattern of the SAR10 and SAR16 treated monkeys.
Other parameters were also measured during the study, including food intake, body fat, plasma ketone bodies, as well as blood glucose control (glucose profile, fed, fasting plasma glucose and during ivGTT). One group received the vehicle. The compounds were administered subcutaneously (SC) (12 weeks “evaluation phase” plus run-out) to obese and NASH male cynomolgus macaques (Macaca fascicularis).
as §1, with “at” for “as”

Substance | body weight (in words) | food intake
dulaglutide [SAR10] | Significant reductions in body weight | Reduction of food intake

Same assay, conditions: compared to the vehicle treated group

Substance | fasting glucose and fed glucose levels (12:30 and 18:30) | ivGTT glucose AUC | ivGTT plasma insulin AUC
dulaglutide [SAR10] | No significant change | significantly decreased | significant increase

Same assay, conditions: day +76 compared to baseline (day −27)

Substance | blood glucose levels, plasma profile | insulin, plasma profile
dulaglutide [SAR10] | appreciable decreases | decreased

Same assay, conditions: day +76 versus day −27

Substance | HDL levels, plasma profile | T-ketones levels, plasma profile | TC and LDL levels, plasma profile | TG values, plasma profile
dulaglutide [SAR10] | slightly increased | quite stable | decreased | quite stable

Same assay, conditions: measured on days +81/+82/+83/+84; DIO NASH cynomolgus monkeys

Substance | liver fat fraction change (MRI)
dulaglutide [SAR10] | −25.2%

Same assay, conditions: more monkeys improved compared to vehicle treated group

Substance | NASH steatosis score
dulaglutide [SAR10] | improved steatosis score
